Experimental data taken from IntAct's records for PubMed 23856421.

B1: Dolichol-phosphate mannosyltransferase subunit 1 (Homo sapiens), O60762 (parent)
chain: MASLEVSRSPRRSRRELEVRSPRQNKYSVLLPTYNERENLPLIVWLLVKSFSESGINYEIIIIDDGSPDGTRDVAEQLEKIYGSDRILLRPREKKLGLGTAYIHGMKHATGNYIIIMDADLSHHPKFIPEFIRKQKEGNFDIVSGTRYKGNGGVYGWDLKRKIISRGANFLTQILLRPGASDLTGSFRLYRKEVLEKLIEKCVSKGYVFQMEMIVRARQLNYTIGEVPISFVDRVYGESKLGGNEIVSFLKGLLTLFATT
partner: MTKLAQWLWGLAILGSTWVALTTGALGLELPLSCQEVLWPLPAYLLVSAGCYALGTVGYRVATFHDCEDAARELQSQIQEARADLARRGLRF

Variants of: B1
Conditions: with dpm3_human DPM3, Q9P2X0

Row | Variant | effect of a mutation on the interaction
1 | G152V | disrupting interaction
